Experiment [1] addresses His-tagged DVB1, full length, from E. coli (rice (Oryza sativa L.)). As to the kind of experiment: native gel or EMSA; Native-PAGE of the purified His-tagged protein, immunoblot with a His-tag antibody; SDS-PAGE beside it.
The target in experiment [2] is His-tagged DVB1^G90E, full length, from E. coli (rice (Oryza sativa L.)). The experiment is described as above.

Usually stoichiometry N stands for the number of molecules, sites or subunits per partner or assembly.

For “His-tagged DVB1, full length, from E. coli (natural protein)”, in experiment [1], the stoichiometry N is 2.
In the case of “His-tagged DVB1^G90E, full length, from E. coli (natural protein)”, in experiment [2], the stoichiometry N turned out to be 2.
